Results taken from the domain aggregation screens of Martell et al. (2025).

Assay: soluble fraction after stress (log2 fold change); higher = more stays soluble; pooled small domains, quantitative proteomics
Details: stress: 75 degC
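Note: 20 min heating vs room temperature control held 20 min.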

Sequence	soluble fraction (log2)
HMDLAPLQTVDIAINYAKAAELAAILKSSEGGILSDRGGVTVDERTNTLLIRDTLESIDEARKTI	0.224
HMDLATQHAAKVNAAILAARRFEREGSWRQVAAKYSEALQLMPGNEQASRGYQQAMAMLDERD	-0.0717
HMDLDSGVAVLRTLMSQHNLQTDDFQNEIGGKSMVSMILNGTRKLSKNHIQALSGRFNLSPALFF	-0.819
HMDLEELSNKMNNVFESLSSDLRDIIIMSDIEGLSYEEISHKINIPIGTVRSRLHRARDLMVRVIKEN	-0.517
HMDLGEQIIEKLRAAGGFLAITDKSPAEEIYELFATSKKNYKKAVGGLYKKGLLVIEDDGIRLTPAGR	-0.503
HMDLHERISSVLLGTGKSNDELAQILGVNKNTISAYKNKHGDLKGIVLEGIVKHFDINPVWLLTGSGTR	-0.577
HMDLKSLEFAIVENVQRHDLNPLEEAQGYKRLIDEFSYDQDKVSKFIGKSRSYITNSLRLLNLPLEVLEF	0.125
HMDLKTNSQLINELEKKIKRPFDREIKNYLNKNLSTDRMISNNEIDKIILFYSGNNEIPNIEKISLILNDN	-0.0499
HMDLPATVPNLEGLTEVTARNKLTVAGLSLGEVKEVESDKEKGTVVGQSIAYGKRVTKGTKVDIEISSGK	0.194
HMDLPDTLSMPNALKVLEDNGFPTSKAKLYKMTSQEQIPFMKYGNKLVFSRKALIEWAHKQLV	-1.94
HMDLPREKRIEIGLTYIYGIGLKTSQKILAATGIDPNTRVKDLDETTVSKLREYIDHNYRVEGELRS	-1.32
HMDLSLQTFNELKTELTNNKITIDQFSEKINEFDITSDIFEISRELFLDDTLSLEDYLVVIENVLIN	-0.327
HMDLSQTVQAKALARVNVREGAGTHFKSLGKLKKGELLPVFRVGNSWASIWWKGRVAYVHTDYLRFESA	-1.98
HMDLTKLFDHDSEYGKSYVFGKITDEMIARAEQTLGYRMPASYIELLKVQNGGMISDELDESWLTTIYGIG	-0.359
HMDMAYEVVKAFHDLQDYKDVKGGKVYHHYDVGDTYPRQGLDPAPDETRIEELLSSGNAQGVPLIAEV	0.112
HMDMNVQNYRGLSLDRAKKLISDLGLKYEVVGTGDSVVKQVPSSGSRMSKENGRIILYTENVEDA	-0.0826
HMDMPLIGTAIRGWGIISPAQQETLIKMSILTVEDLAAINDEGIKRIGMGGLDLKNKAKAWLLQLK	-2.2
HMDMRLADLIGRDGITITFMRPSGKVEIDGEIYDAVSDVGLIDKNEEVEVIKFENAQLVVTKKNKN	0.102
HMDMSVDQFNQGIRGSELYQQFIHGRGLQQPDGKTREWTDADRNAWRRTLEASGVRIPDGMKIDNAGNLNE	0.375
HMDNEIIEEEKITTLMITHNMRDAIKYGNRLIMLNEGRVIFDISGEEKKNLTVQELLEKFEK	0.242
HMDNEIMYPIQINGKVRAELFVSTERAMDKQYVLEQAKANEKIQGYLEGNRLVKEIFVPKRIVNLVIAP	-0.576
HMDNIEIGNRIREIRIKKNISVFELAYRTKTSQSHIYQIEGGSQNMSIELLFKIADTLETDPNTILGV	-3.97
HMDNIPAHIKAKIINYVNRNYPGAIIKDIERKSNGRYEAEIVYNNREYDLLFDAQGNFISASLDDK	-0.0583
HMDNNFIQSLYPIAIGISKNQLDPWDLINGWVEYYLKNKEKYINHPNLKAVAVLKMKGLLIDHFRKS	-3.55
HMDNPKGNLQEAVQAKGNEPIEYRVLNVDGPDHAREFKIAVFIGGKRKGTGVGNSKKKAEEIAAEKAFKRM	0.109
HMDNPVPVIITDQNFQPQLWKNVGVPTDTLFHELSAANQRKLENLMKTMIQTPLTDNGKISGYAFYSK	-0.00686

Sequence	soluble fraction (log2)
HMDNREKLRQEFLENLKELQEQNDIPQQEIDRVILDYDGVAEFLEDEGALKRYGGQLVDMTAYRAGAIPS	0.0771
HMDNRLFKMLYYLLDKERATAPELAAEFEVSTRTIYRDVEALSSAGIPIYAEPGRNGGIYLLQD	-2.3
HMDNTSNVEKTLRFIRQRGKVSRKEVETLLGSSKFPAISALNELLAENKIVKTGSGPAVRYSVS	-0.353
HMDNVINDGMQVRFTGNVDINGTPLKIYDRIYTAEGISDDTVVLMLGNDVYARVYLSDVVPAD	-0.975
HMDNWLSGLAVEADRMILTQPGEVFDRLSRAFEATLIRRALASTGGRRIEAAHLLGIGRNTITRKIQDLGL	-2.62
HMDPDARQDAEVWLLDFLSAGPRTAQEIFTAARVEGHTRVTVKRAKATAGIQSVKQDFDGPWVWVLPGSG	-0.455
HMDPFAYEVKVTDLAAGSSEIRTVYTEQGSFNIPSGMSGNLKIQVRSASMYDEVEPSDWYTIGEEDIN	0.0347
HMDPLASLTPREREVLSLMAQGLSNLAVAERLVVSAGAVEKHISSIFTKLDLAPSEHEHRRVLAVLRYVAG	-2.86
HMDPPISNDARNAINAKLMKFSELHPNEMKKLVEAYKKEFKVSKISPITLARQGEFLSHAISKIDDT	-0.0671
HMDPQDGTVKFFNGARGFGFITPDGGGADVFVHVSAVERAGLTQLVEGQRVNFQTLPDTKGKGPKAVNLKV	0.106
HMDPSDQLYTVPPSAEGLRLDLFLVQHVPHMTRALATQLTGAGQVRVNGRRAKKGDRLPSGAQVRLEQAP	-0.85
HMDPSHGESRENLDIMRIIDETHLEYPSWGYRKMTDHLRANHGYTINRKRVRRLMRLMDIIALFPG	-1.33
HMDPSVTGLLTRLGISPQTAQELAGQYEEPYILEKIAIVEAHPEYVKNAAGFVITALQEDWKD	-0.591
HMDPTHDMHFLVKDQVTGQPLPNMPYRLQLDNGQTLTGRTDALGMTEKISGHSPHIASIEVPY	0.117
HMDPVILDINSVKALLGISNKADFMAELSRLVVTEGDKKMIIPLAKEVGIDNVAVYKRNEIENISNYK	-0.129
HMDQAEDVLSIPVDALMRGNQVYIKDDTVTEQQGPIPAGFKAVEVETGLISDSYVEIKSGLSEGDTVYVAE	0.129
HMDQESFGYFHVKYADVKQVADLVQKLNIPAVTWADERTRRLVALGSPATLQRISQVLNMVDL	-0.781
HMDQHPYGEDSFRGDNPPAGFDIKGNEDSMKFHEPSSPWYGRTIAEVWFRSAAAAEAAGFVNAV	-0.0403
HMDQINNDLRKLIEFLPEDQKTVLKMRHFQEMSFKEIAKATGVSINTALGRMRYALINLRKLIEENEI	-2.06
HMDQPLIEPLSERELEVLSLIAAGYSNAEIAERLVIAVGTVKRHINNLYGKLGAGSRTQALAIAREIGLM	-0.107
HMDQTKYDAIITEAKKLTAEGQYKESEEKLATIPVSDLGKPHYSIVKETVEKLNNQNNEGLKRQEEVAVE	-0.0329
HMDQVLHQLVEVLRRSEIRISPAETLDAFKVLRNVGIDNKSLLREALALTLAKSIHEKIIFYETFDEFFT	-1.46
HMDRADIDAVDAEWVRATMERLGLRAKHIESHTGISKSTLSILLNGHRPLTRWHKIAFYYLFKHIEF	-2.76
HMDRDQNVEEGQRSLKSEMGRFGLLIANMDDLAERVNYGNAEDMYAAIGAGDLRLMQVVHAAEEMLG	0.097
HMDRENNITAGREILEKELSRLALNMKMVNLQDYAARFNVKHSDDILAGIGAGDIRPAHIVNAIAEKLT	-0.0151
HMDREQLELYVGEVRVLQVGELRRIAIGNGKVLQASALDRGQLLLIPEAPGQSVLYLWTRDGTERHLSISV	0.0104

Sequence	soluble fraction (log2)
HMDRESFIKLGRELARSAFAHVGQKSTEKALETAADVLRLKDPNEVLARLGSAELTGRQVVQAIYPELI	-0.277
HMDRFRYYITEDSVQRGTYPYVDETTLKRFTSQLHKYEQGMISAYGYLEYSKPLTAEQIKDYTLMPSP	-0.0579
HMDRFVLQLSKRYYDSSIEGVRKALAAFPVKTELLDQDRGGRPFYHENGKENEPVFRIMFHPEEGM	-0.421
HMDRIISTPMPGRVVKIPVTEGEPVAKGATVITISAMKMESEYKSPIDGIVKKIHVSEGDNINANQPLIEI	-0.51
HMDRKFFYEDQYQDYLGEELKVSFFDTDNKKTVRGTLSEVTPHGIKINLEQETQEIPFSSIIQANLI	0.224
HMDRPARDEAQSWLADVLADGPVPTAEIREEAEAAGLAWRTIQRARIALSVEPIRGDGRNAWLWQLPG	-1.49
HMDRQIQITVAENEAGQRLDAFLAAKIPDMSRSYIQKLIEDGLILVNGQSTKGKVKTYSGMNIEVYMPE	-0.0484
HMDRRDEYHQHLLRLLLSGEIRDKDELQRRKVKLSGEYGLAGVPKNSETLALVPPDRLPEVLDILR	-0.214
HMDRSIGDIIAELRDLSAEQVERVLAHQRETGVRFGEAAVALGYASKEDVLFALSQQFHYPYAPEE	0.0114
HMDRSVTAAELRLAAMDLLARREHGSQELEAKLSRRFHKRHYDVELLRSVIEQLTVEGLLSDERFAVS	-0.951
HMDRVTYPVSFNGKVRFQLELDAGMNAKEVETAALGHEKTAAQIEGKTIRKVIVVPGRIINIVV	-1.22
HMDRWTPLVVAVLSRGSHRFGELRAAIGGITPKVLTDTLRSMERDGLITRDQAPGVPPRVDYALTPLGS	-1.43
HMDSALKDDLNAFVKKLDVESQTLFMRRYFLGESVSSLASRFEMSEDNVGVKLFRIRAKLKKYLTGKGYD	-3.1
HMDSAMMDLVMRVQLALFTKGYDVGIIDGKIGPKTRAQIKRYQSDNRLSSTGTLTTSLLTSLGIQ	-3.16
HMDSATDRVALKELLNTLSARERTIITLRYFSDQTQTQVAKSLGISQVQVSRLENAILQRLRKL	-2.08
HMDSDELEAFRLITSVNGVGPKLGIAILSEFTAEKLTVFIASGDAKALTAASGVGIKLAQRIVLELKDKVG	-0.351
HMDSDFIKIEVLFNERNRLDLKAMMEASGFTDRGQFLSIMADLTGDENWDRNLDRGDIFYLPRSFTI	-1.28
HMDSDIGQQLKILLTVGTFMPSTELKAIAQQFGMKKPTDLKEWVELESDTQRIKGNPTKGYWINEINDL	-0.682
HMDSEEVYQMTKHKMDAAQISVAKRIHINLVLVKLLELHHLGYDLRHYHAQHHAFIKRLNLPEYFRFD	-1.67
HMDSEKVLTNLKEELVLQLSNIEPYGYVPSQYWYSKVQRVQSVQELGKYVDGDLEAFVMKYAEDWESQK	-0.115
HMDSGFMRTTQSYTVARLAEIFRLSGEDYLAVLREYDGWYQDLTSTKDLIRKGSDVPVPEGV	-1.67
HMDSGLEQAKTAALENAELETSQVTFIKAELDYDDGKKVYEIEFVTSAMKYEYQVKADDFSILEMSKETIE	-0.755
HMDSHSAESVRQRIKDMIAAEASKSILSDDTIVENLKSEGIEIARRTVAKYRESLNIPSSIQRRRIARSEA	-0.19
HMDSILMPGVVNKELREALAILKNEGIGWADPEYASSTVTRNYVISTDPVEGIELAPGQKVRLVVSLGPKP	-0.326
